Source: article PMC4872106, “The evolutionary pathway from a biologically inactive polypeptide sequence to a folded, active structural mimic of DNA” (Nucleic Acids Research, 2016)

Assays:
[1] = target: T1, M.EcoKI (the M2S1 methyltransferase core of the EcoKI Type I RM enzyme) (E. coli, UniProt P08957 1-529; P05719 1-464); assay: cell-based or functional assay
T1 sequence 1: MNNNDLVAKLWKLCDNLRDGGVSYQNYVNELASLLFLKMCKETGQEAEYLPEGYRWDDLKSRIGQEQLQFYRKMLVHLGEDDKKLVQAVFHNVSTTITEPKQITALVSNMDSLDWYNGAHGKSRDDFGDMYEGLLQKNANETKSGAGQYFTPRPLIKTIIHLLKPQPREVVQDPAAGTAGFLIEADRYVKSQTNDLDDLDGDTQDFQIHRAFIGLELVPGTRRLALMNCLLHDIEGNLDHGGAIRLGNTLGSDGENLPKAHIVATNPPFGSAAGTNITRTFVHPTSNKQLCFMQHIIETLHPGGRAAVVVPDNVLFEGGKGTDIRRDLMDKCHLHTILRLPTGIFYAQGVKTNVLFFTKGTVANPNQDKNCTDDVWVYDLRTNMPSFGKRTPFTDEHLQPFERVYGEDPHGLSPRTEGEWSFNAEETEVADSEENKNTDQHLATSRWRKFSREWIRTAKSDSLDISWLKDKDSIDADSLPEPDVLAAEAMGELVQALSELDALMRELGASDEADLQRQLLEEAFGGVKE
T1 sequence 2: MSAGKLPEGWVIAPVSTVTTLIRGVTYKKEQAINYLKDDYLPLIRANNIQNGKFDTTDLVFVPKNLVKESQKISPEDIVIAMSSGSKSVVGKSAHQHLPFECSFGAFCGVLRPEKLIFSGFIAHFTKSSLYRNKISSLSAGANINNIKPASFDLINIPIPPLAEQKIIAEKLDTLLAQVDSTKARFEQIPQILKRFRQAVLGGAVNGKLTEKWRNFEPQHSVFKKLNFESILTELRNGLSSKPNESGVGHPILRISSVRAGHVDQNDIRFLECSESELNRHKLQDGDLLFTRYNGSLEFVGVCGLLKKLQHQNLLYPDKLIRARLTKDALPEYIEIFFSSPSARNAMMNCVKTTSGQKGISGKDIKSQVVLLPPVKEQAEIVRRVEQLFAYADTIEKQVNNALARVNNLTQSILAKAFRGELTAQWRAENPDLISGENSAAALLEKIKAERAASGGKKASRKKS

[2] = target: EcoKI Type I restriction/modification enzyme (R2M2S1) (E. coli, UniProt P08956 1-1170; P08957 1-529; P05719 1-464); assay: cell-based or functional assay
[3] = target: T1, M.EcoKI (the M2S1 methyltransferase …); assay: ITC; as described in ref. 15 but in 20 mM HEPES buffer, pH 7.0; heat of interaction plotted against the molar ratio of Ocr dimer to M.EcoKI; details: both partners purified

EcoKI Type I restriction/modification enzyme (R2M2S1), sequence (P08956 whole entry, one chain of several): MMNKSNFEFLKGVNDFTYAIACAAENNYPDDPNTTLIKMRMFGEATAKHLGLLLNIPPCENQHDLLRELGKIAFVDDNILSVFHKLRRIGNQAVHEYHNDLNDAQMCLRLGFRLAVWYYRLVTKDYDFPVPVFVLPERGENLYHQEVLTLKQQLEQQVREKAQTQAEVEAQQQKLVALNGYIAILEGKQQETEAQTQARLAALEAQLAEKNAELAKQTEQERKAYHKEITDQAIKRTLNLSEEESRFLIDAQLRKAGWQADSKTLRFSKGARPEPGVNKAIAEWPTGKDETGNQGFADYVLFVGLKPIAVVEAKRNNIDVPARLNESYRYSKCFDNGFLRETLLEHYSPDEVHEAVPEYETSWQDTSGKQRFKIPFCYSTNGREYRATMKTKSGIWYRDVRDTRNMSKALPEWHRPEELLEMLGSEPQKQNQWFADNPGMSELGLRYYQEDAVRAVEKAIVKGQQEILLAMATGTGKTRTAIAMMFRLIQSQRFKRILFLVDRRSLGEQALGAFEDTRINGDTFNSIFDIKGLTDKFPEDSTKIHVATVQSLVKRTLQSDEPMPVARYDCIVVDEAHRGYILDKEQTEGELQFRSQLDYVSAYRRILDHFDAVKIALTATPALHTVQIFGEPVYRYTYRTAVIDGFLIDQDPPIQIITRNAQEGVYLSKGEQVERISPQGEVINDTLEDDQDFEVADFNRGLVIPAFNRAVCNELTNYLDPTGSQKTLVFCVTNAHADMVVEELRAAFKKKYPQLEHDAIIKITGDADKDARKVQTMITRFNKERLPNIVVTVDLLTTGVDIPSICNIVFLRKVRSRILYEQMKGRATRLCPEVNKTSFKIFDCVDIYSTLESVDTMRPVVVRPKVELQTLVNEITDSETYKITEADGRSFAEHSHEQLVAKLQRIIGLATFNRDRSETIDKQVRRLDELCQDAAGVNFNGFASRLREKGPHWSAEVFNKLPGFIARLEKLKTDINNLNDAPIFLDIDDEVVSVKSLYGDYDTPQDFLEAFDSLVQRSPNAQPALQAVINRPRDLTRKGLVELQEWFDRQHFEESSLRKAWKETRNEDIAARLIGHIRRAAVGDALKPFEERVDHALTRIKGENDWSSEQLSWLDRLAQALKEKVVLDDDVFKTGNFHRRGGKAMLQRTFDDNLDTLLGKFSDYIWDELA

B1: Ocr (overcome classical restriction) from bacteriophage T7, wild type (natural protein, UniProt P03775 1-117, looked up)
chain: MAMSNMTYNNVFDHAYEMLKENIRYDDIRDTDDLHDAIHMAADNAVPHYYADIFSVMASEGIDLEFEDSGLMPDTKDVIRILQARIYEQLTIDLWEDAEDLLNEYLEEVEEYEEDEE
notes: Ocr, product of bacteriophage T7 gene 0.3; homodimer of a polypeptide of 116 amino acids (34 acidic and 6 basic residues per monomer); also called wild-type Ocr; gene 0.3 protein
In the case of B1, the “in vivo antimodification: efficiency of plating on E. coli NM1041 (r+m+) relative to NM1057 (r-m+) of phage lambda v.o recovered from NM1057 expressing Ocr (vector alone 1)” value [1] is reported as 0.00014 eop, the “in vivo antirestriction: efficiency of plating of phage lambda v.o on E. coli NM1049(DE3) (r+m+, EcoKI) relative to NM1261(DE3) (r-m-), strains expressing Ocr (vector alone 5x10^-5)” value [2] is reported as 4 eop and the “stoichiometry N” value [3] is reported as 1 Ocr dimer per M.EcoKI.
